The assay concerns the target His-tag GafD lectin (Escherichia coli) (UniProt Q47341). Kind of assay: concentration dependent nIR fluorescence loading curves, ks against concentration, GafD on Ni-NTA SWNT/chitosan sensor.

The values that follow come from patent publication US10215752.

pKd: −log10 of the molar value.

Chain of His-tag GafD lectin (Escherichia coli) (Q47341 23-200 limits assumed): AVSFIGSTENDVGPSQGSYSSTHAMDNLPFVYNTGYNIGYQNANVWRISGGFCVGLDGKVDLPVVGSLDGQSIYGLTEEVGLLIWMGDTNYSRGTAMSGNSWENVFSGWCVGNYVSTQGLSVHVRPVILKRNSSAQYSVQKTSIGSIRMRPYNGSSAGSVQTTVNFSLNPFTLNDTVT

Take “murine produced anti His-tag antibody (Sigma H1029)”: the pKd was 5.40 and the koff came out at 0.0082 s⁻¹.
